# B1: Nibrin (Homo sapiens), O60934 (parent)
# chain: MWKLLPAAGPAGGEPYRLLTGVEYVVGRKNCAILIENDQSISRNHAVLTANFSVTNLSQTDEIPVLTLKDNSKYGTFVNEEKMQNGFSRTLKSGDGITFGVFGSKFRIEYEPLVACSSCLDVSGKTALNQAILQLGGFTVNNWTEECTHLVMVSVKVTIKTICALICGRPIVKPEYFTEFLKAVESKKQPPQIESFYPPLDEPSIGSKNVDLSGRQERKQIFKGKTFIFLNAKQHKKLSSAVVFGGGEARLITEENEEEHNFFLAPGTCVVDTGITNSQTLIPDCQKKWIQSIMDMLQRQGLRPIPEAEIGLAVIFMTTKNYCDPQGHPSTGLKTTTPGPSLSQGVSVDEKLMPSAPVNTTTYVADTESEQADTWDLSERPKEIKVSKMEQKFRMLSQDAPTVKESCKTSSNNNSMVSNTLAKMRIPNYQLSPTKLPSINKSKDRASQQQQTNSIRNYFQPSTKKRERDEENQEMSSCKSARIETSCSLLEQTQPATPSLWKNKEQHLSENEPVDTNSDNNLFTDTDLKSIVKNSASKSHAAEKLRSNKKREMDDVAIEDEVLEQLFKDTKPELEIDVKVQKQEEDVNVRKRPRMDIETNDTFSDEAVPESSKISQENEIGKKRELKEDSLWSAKEISNNDKLQDDSEMLPKKLLLTEFRSLVIKNSTSRNPSGINDDYGQLKNFKKFKKVTYPGAGKLPHIIGGSDLIAHHARKNTELEEWLRQEMEVQNQHAKEESLADDLFRYNPYLKRRR
# Variants of: B1
# Details: with pk3cb_human PIK3CB
row,Variant,effect of a mutation on the interaction
1,K653A;L654A;L655A;L656A,decreasing interaction
2,S661A;L662A;V663A,decreasing interaction
